Laboratory results published in the DeepSol protein solubility set.

Assay: soluble on expression in E. coli; label from the status in PepcDB or PDB records

Sequence	soluble on expression in E. coli
MSLSGKVGAPTLEVLRTAVSKRWSANSDLIDAIEHVSRQALLELAERAGQVDEVEDQLFRFSRILDVQPRLAILLGDCAVPAEGRVRLLRKVLERADSTVNPVVVALLSHTVELLRGQAVEEAVLFLAEVAVARRGEIVAQVGAAAELSDAQRTRLTEVLSRIYGHPVTVQLHIDAALLGGLSIAVGDEVIDGTLSSRLAAAEARLPDEGHHHHHH	not soluble
MYSKIIERELETLKTIFQEASRANTHYEFISVVGKAVSEFLGSEGYRIEWDGRGSAKGNEVVLEIRINTYAKVNLYFPLKKGRKLSKVEEEFLKFVKEVSERIAEKITSYTIYKTLLDSYPFVAYLVEAEPPYPQKILYVTPSLEKWLGWKPEEISKDW	not soluble
MSLRITEGSAVIEVPEAYSGPGRRSPGFYNADQVLNRDLTIDLINEFGVEKVLDGFGGSGVRGIRISLETKAKVVIAEISPSSCEIIKQNIAINNAEADLIHDNFQCVSSHIAFDYIDVDPYGSPVPYLDAAIMNVRKGGYLGITATDQSTLTGSTLNKTRRRYGAYIVNDIYRHEMGIRTLIGYIARRAAAFDRYIEPQLSIWNHHYYRVFVKVGKGVNGADKMIENIGYLNKHTTIDNSFKDVNEGPVWLSNLNNAELLEKIRDPRVSKKIEMIKHDNRLLFVDLTDIARKTSLSLPPLAKVMDEIMKHGYEAHRTSFSPTGIKTDCPYAEVSEILKAYAKREGHHHHHH	soluble
MGSDKIHHHHHHMKTDTEWLLCDFHVHTNMSDGHLPLGEVVDLFGKHGVDVVSITDHIVDRRTLEQRKRNGEPLGAITEDKFQDYLKRLWREQKRAWEEYGMILIPGVEITNNTDLYHIVAVDVKEYVDPSLPVEEIVEKLKEQNALVIAAHPDRKKQDEEHLSWYLWANMERFKDTFDAWEIANRDDLFNSVGVKKYRYVANSDFHELWHVYSWKTLVKSEKNIEAIKEAIRKNTDVAIYLMRKNRLSSLSDVI	soluble
MRGLSRRVQAMKPDAVVAVNAKALELRRQGVDLVALTAGEPDFDTPEHVKEAARRALAQGKTKYAPPAGIPELREALAEKFRRENGLSVTPEETIVTVGGSQALFNLFQAILDPGDEVIVLSPYWVSYPEMVRFAGGVVVEVETLPEEGFVPDPERVRRAITPRTKALVVNSPNNPTGAVYPKEVLEALARLAVEHDFYLVSDEIYEHLLYEGEHFSPGRVAPEHTLTVNGAAKAFAMTGWRIGYACGPKEVIKAMASVSRQSTTSPDTIAQWATLEALTNQEASRAFVEMAREAYRRRRDLLLEGLTALGLKAVRPSGAFYVLMDTSPIAPDEVRAAERLLEAGVAVVPGTDFAAFGHVRLSYATSEENLRKALERFARVLGRA	soluble
MGSDKIHHHHHHMPTTASVLIRDSAPREATSPPFLDIRDVHKRFAGVKALRGVSLAIERGQIYHLLGENGCGKSTLIKIISGAQPPDEGTLVVEGREVAGLSPIMALAAGIETVYQDLSLLPNLSVAENIALSQQLVASGGQLARRLDLARLKATATRALEAVNLPAGDGFLATRVDELPIATRQLIAIARVIATDAKLVIMDEPTTALTKREVDNLIAVVEKLRAKGVAVLFVTHKLDECRTIGGRAIILRDGRKVMEGDIADFTKKDLSHWMTGRALDDSRYREAERGGERLLDVRDLGRANAFGGVSFSLNRGEILGVTGLLDSGRNELALALAGVCPADRGGVSLAGERVVLSQPADAIAAGIGYLPEDRLSEGLFLEKPIADNIIASVLDRLRGRLGMLDRPLSRSRAQEMTDDLQIATPDIANPVQSLSGGNQQRVLIGRWLMIEPRLLVLHGPTVGVDVGSKDTIFRIIQRLAKGGMAVIIISDDLPELLQNCDRILVMRKGRVAEVFDAEGLGEGALYRALVAEESPRSLP	not soluble
GMSEDHPLDRPVWNSLGGPQSELDVASGNLRRLDPAYGPFAAAAPGAEAGLASLLQGDADEIWLVEPEPVAPPPGTRVIRVAPLLQMIADGPVPSFDDPGIVALGETDVPEMTALALATEPGPWASGTWRYGQFYGVRIDGRLAAMAGERMRPAPNLAEVSGVCTWPEYRGRGLAARLIRKVIAGMAARGEVPYLHSYASNASAIRLYESLGFRARRAMTATLLGKST	soluble
MGSDKIHHHHHHMSQHRDAAFLTAKSWQDLPASVPFRLCCIERIDETHDVVTFRFEAAGEPVRFSYKPGQFITLLLEIGGEPHSRAYTLSSSPSRPYSISITVKRVEGGKVSNYLIDNLRPGHALDAMGPSGSFNLVDIPADRYLFLSAGCGITPMFSMSRWLTDTRVGADITFVHSARSVDDLIFAPKLESMANNHSGFRLGYVIEQGNCPDWPYAPVLPGRLTLSGLDSLVSDWRERTLYVCGPEAYMAAVEAMVRDAGFAMSRFHKESFGKPGAPVKSSGQGFMLKVGDKLHPLGESGLLLEGIEALKLPIIAACRSGVCGACKCQVLEGDVERLSEMTLTEEDKANGMVLACSARALSNISLKL	not soluble
MASTAAETEKPEDHNDLVQLCNPHIAAMKEDILYHFSLSTSTHDFPAMFGDVKFVCVGGSPSRMKAFIKYVAMELGFAHPGADYPNICEGTDRYAMFKVGPVLSVSHGMGVPSIAIMLHELIKLLYHAHCSGVTLIRIGTSGGIGLEPGSVVITRQAVDPCFKPEFEQIVLGKREVRNTDLDEQLVQELARCSAELGEFPTVVGNTMCTLDFYEGQGRLDGALCSYTEKDKQDYLRAAYAAGIRNIEMEASVFAAMCNACGLRAAVVCVTLLNRLEGDQISSPHDVLAEYQQRPQRLVGQFIKKRLMQA	soluble
MAGSKKSNRREEILQALAQMLESAEGASRITTAKLAKQVGVSEAALYRHFPSKARMFEGLIEFIEEALMTRINRILDDEKDTLERIRMVMHLILAFSERNPGLTRILSGHALMFENERLRERINQLFERIETQLRQILRERKIREGKSFPVEERILAAQILGQVEGSLNRFVRSDFKYQPTANFDEYWALLSAQIK	not soluble
MGSDKIHHHHHHMGCKSVYADSCWISSPTLNFGSVNTQQVSSKTDLDVTCNQYNNVKTSFNLCFYIEDNSPLGINPRRLISLSWPFDYLNYDLYYDPSFSRMIDNKAAPNNLLCKSLQIENNGQQTVQIPIYGKVYANQNVKADNYQSYNMTVKLLYKSKTGDVVPSVEETLAQQNMVQNYMKTTTKFENSCAVVGVNTLDFGSIISLNQPIYGQTSIQLKCPTNTALKVGLDTGLYASGTQRRMTNAGQFIQYDLYQDSAYSIAWGTSDNSVLKLDTYQPVFTIPVYGRILPQNQNLKAGEYRDTITIKLTY	not soluble
MNELVFLHSQYIEEEPYTTDEVIAKYSQIKRESVSKLIKKYQKDLEEFGKVGFEIRAMESGQKAKFYQLNEEQATLLITYLDNTEPVRRFKKALVRQFYDMKNGLYARRMERQKEKSVRKSMTDVIKELGLSPHYYKHYTDLVYKTALGFNAKQLREAREVSKKSTILDFLTSEEIEAVNKREQQVATLLTLKMDYDTIKSILNGQGVLYQTTLKMPVATN	not soluble
MQDAACARRFVEAFGKRAYRRPLTPEEADAYAALFGQGSFREGVEATITHMLVSPNFLYRSELEHHHHHH	not soluble
MVLRKLSTYRQKRDFEKTPEPSGEAAVASSKQRRFVIQKHDASRLHYDFRLEFDGVFKSWAVTKGPSLDPHDKRLAVEVEDHPLDYGDFEGTIPEGQYGGGTVMLWDRGTWEADDPERGFKKGDLKFTLHGEKLHGSWVLVRMRNDRDGGKRTNWLLIKHRDEYAREGEDILAEDKSVASGRAMAQILEHHHHHH	soluble
MAGLKYEDAGVNIEAGNQAVERMKQHVKKTFTQDVLTGLGSFGSLYSLKNIINNYDDPVLVQSIDGVGTKTKVAVMCGKFENLGYDLFSAATNDIVVMGAKPITFLDYVAHDKLDPAIMEELVKGMSKACAECGVSLVGGETAEMPGVYQAGEIDMVGVITGIVDRKRIINGENIKEGDIVFGLSSSGLHTNGYSFARKLFFDVAGNKHTDTYPELEGKTIGDVLLEPHINYTNIIHDFLDNGVDIKGMAHITGGGFIENIPRVLPQGLGAQIDKDSFATPAIFKLMQRIGDISEFEMYRSFNMGIGMTIIASQDQFDKMQELAKKHTNTKLYQIGKITNSGKVEII	soluble
MSLDLLISNCTVFGREGSDAIGINEGRIAFIGIDRDLRAKKRIDLSGKIVFPGFIDSHAHLLSTGLEDIRLNLYHTKSKEEVVERIAEYSKGKEKVIAYRWDESMWKPQSSYLTSSDINGIPVPVVAFRRDGHMAVANQKAMDVIGTTRKEGIFKEDDIELLEPLVKPNEAEIRDALNTAANRAISLGIVAVRDMVDISTYNEYKNIKTPLKIYKVLYSDSIFDKFGTSSQNDWGIKAFLDGSLGSRTAAHKGWDASNLKMDESKFENFAKQIWMHNLPLAVHAIGEVAVETAAKVFYRNAGRNRNSIEHFELVDDDVLDYITKTTIISSQPNFLEWAGKGGMYEDRVGGEWLYKNNPFRWMIDRGIHLAFGSDSMPIGPMYGIYYAVNSEYQRQKITLEEAVRCYSEGGSYLLGTEGYMGMLRVGYSADMAVFDEKLLKDLRGIKAAKPEITIINGKIYTNEGHHHHHH	not soluble
MSAVNRAAVEAVLRQYTDPYLNQDPVSAGCVRDIEVQGDRVTVRMELGYAAGLFKSGWAQMLQLAIEGLDGVSSAKVEISSVIAAHKAQAQIPGLANVKNVVAVASGKGGVGKSTTAANLALALAREGAKVGILDADIYGPSQGIMFGIAEGTRPKIKDQKWFVPIESHGVEVMSMAFLTDDNTPMVWRGPMVSGALLQLVTQTDWGNLDYLVIDMPPGTGDIQLTLAQKVPVAGAVIVTTPQDLALLDARKGVEMFRKVNIPVLGVVENMAVHICSNCGHAEHLFGEGGGEKLASQYDVELLASLPLSMLIREQADGGKPTVIAEPESQIAMVYQELARHVGARIVLQEAAAPAMPNITISDDLEHHHHHH	not soluble
MQNAGSLVVLGSINADHILNLQSFPTPGETVTGNHYQVAFGGKGANQAVAAGRSGANIAFIACTGDDSIGESVRQQLATDNIDITPVSVIKGESTGVALIFVNGEGENVIGIHAGANAALSPALVEAQRERIANASALLMQLESPLESVMAAAKIAHQNKTIVALNPAPARELPDELLALVDIITPNETEAEKLTGIRVENDEDAAKAAQVLHEKGIRTVLITLGSRGVWASVNGEGQRVPGFRVQAVDTIAAGDTFNGALITALLEEKPLPEAIRFAHAAAAIAVTRKGAQPSVPWREEIDAFLDRQR	soluble
MSFYYSNIVSNQEKTFYDAQFSMSSLKQVSPISGSPQRDDSFNISPASSSPDMLVETWKSDEENAKSESPSSQSTTATSTNDDLFASVGTWEVHANENNITVNKKKKRSRKIRRLRDVQDSDEERPKPVIALVPLVPNPFCVSDSLLSKLGPVATKRRRVCFNPTISFHYYCVDK	not soluble
MAHHHHHHMNGRYVPQEVLGTGTYGRVLRCNDVLTGRQVAVKVSQRDAAYRRSAMNEIRVLQLLSHTDNALKMFDFFEDSGHLCIASELLCTDFYEVLRKNGFQPLSLDTVRIVGERVLRALAELHKAGYMHCDIKPANVMLRFNETDRSNLSDFTKTCLIDFGAARQFHENTYYDVQSLWYRAPEVMLGLPYTSHIDSWSVGCLLFELYTGKPLFAGENPREQMTSIMCTVGMPPMEAFSSGANVEKLQLPCLAMDVNAEANLRNLIASYRCNNTGFNHSYQLVGEESAFVNLLCALLQPDVRWRLSCTDALHHAFFTSRCLYHGNIVSANFSVFSPSSNGLQSSIDSNFGAVFSSTGNDARGFGGFEHLVPQQTQPHPNPHPQPRLKSESSPILPANSNSVPLVGLVGSPPGMVLPGTRPPASSQVNIPSSRVVLQNVMYPTPPMKIIQPVPFNTQQSQKALQQPQRVSANMLPVMVSAIGNPYSFPPCVRPECQVQNWEPVIFQPQQQIPPEVTPMFQCKILPGGCQYNYQGGADPSFYGASIKSGLHSAVYVPS	not soluble
